According to publication PMC10397247:
Where two headings read alike, the source gives them in different places.

T1: P6-AA-12HAA-D
T1 chain: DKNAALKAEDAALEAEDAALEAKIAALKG

T2: P6-AA-12HAA-E
T2 chain: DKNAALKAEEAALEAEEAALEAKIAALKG

T3: P6-AA-12HAA-H
T3 chain: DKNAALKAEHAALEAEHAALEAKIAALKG

T4: P6-AA-12HAA-K
T4 chain: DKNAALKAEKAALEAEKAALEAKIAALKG

T5: P6-AA-12HAA-L
T5 chain: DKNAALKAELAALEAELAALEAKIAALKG

T6: P6-AA-12HAA-R
T6 chain: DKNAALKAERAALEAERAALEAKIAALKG

T7: P6-AA-12HAA-S
T7 chain: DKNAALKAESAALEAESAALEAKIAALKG

T8: P6-AA-12HAA-T
T8 chain: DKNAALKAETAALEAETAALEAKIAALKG

T9: P6-AA-12HAA-V
T9 chain: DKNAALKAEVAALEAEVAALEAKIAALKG

T10: P6-AA-12HAA-Y
T10 chain: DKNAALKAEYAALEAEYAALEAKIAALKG

T11: P6-AA-1HAA-N
T11 chain: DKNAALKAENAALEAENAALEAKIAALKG

T12: P6-AA-1HAA-D
T12 chain: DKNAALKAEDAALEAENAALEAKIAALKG

T13: P6-AA-1HAA-E
T13 chain: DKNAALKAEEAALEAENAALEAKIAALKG

T14: P6-AA-1HAA-H
T14 chain: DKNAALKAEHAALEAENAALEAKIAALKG

T15: P6-AA-1HAA-K
T15 chain: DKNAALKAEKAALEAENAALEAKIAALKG

T16: P6-AA-1HAA-L
T16 chain: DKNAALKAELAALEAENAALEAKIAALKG

T17: P6-AA-1HAA-R
T17 chain: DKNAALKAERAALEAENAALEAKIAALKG

T18: P6-AA-1HAA-S
T18 chain: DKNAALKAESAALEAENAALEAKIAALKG

T19: P6-AA-1HAA-T
T19 chain: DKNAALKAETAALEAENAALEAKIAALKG

T20: P6-AA-1HAA-V
T20 chain: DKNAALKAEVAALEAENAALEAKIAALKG

T21: P6-AA-1HAA-Y
T21 chain: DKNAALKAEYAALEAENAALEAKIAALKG


Tests used:
Experiment in all cases: two-hybrid library CCmax;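 note: natural log of median RNA to DNA barcode read ratio; higher means stronger binding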
[1] = biological target: T1, P6-AA-12HAA-D; details: mean of both orientations
[2] = biological target: T2, P6-AA-12HAA-E; details: mean of both orientations
[3] = biological target: T3, P6-AA-12HAA-H; details: mean of both orientations
[4] = biological target: T4, P6-AA-12HAA-K
[5] = biological target: T5, P6-AA-12HAA-L; details: mean of both orientations
[6] = biological target: T6, P6-AA-12HAA-R; details: mean of both orientations
[7] = biological target: T7, P6-AA-12HAA-S
[8] = biological target: T8, P6-AA-12HAA-T
[9] = biological target: T9, P6-AA-12HAA-V; details: mean of both orientations
[10] = biological target: T10, P6-AA-12HAA-Y
[11] = biological target: T11, P6-AA-1HAA-N; details: mean of both orientations
[12] = biological target: T12, P6-AA-1HAA-D; details: mean of both orientations
[13] = biological target: T13, P6-AA-1HAA-E; details: mean of both orientations
[14] = biological target: T14, P6-AA-1HAA-H; details: mean of both orientations
[15] = biological target: T15, P6-AA-1HAA-K
[16] = biological target: T16, P6-AA-1HAA-L; details: mean of both orientations
[17] = biological target: T17, P6-AA-1HAA-R; details: mean of both orientations
[18] = biological target: T18, P6-AA-1HAA-S; details: mean of both orientations
[19] = biological target: T19, P6-AA-1HAA-T; details: mean of both orientations
[20] = biological target: T20, P6-AA-1HAA-V; details: mean of both orientations
[21] = biological target: T21, P6-AA-1HAA-Y; details: mean of both orientations

| Binder | interaction score [1] | interaction score [2] | interaction score [3] | interaction score ([4]; mean of both orientations) | interaction score [5] | interaction score [6] | interaction score ([7]; mean of both orientations) | interaction score ([8]; mean of both orientations) | interaction score [9] | interaction score [11] | interaction score ([10]; mean of both orientations) | other results |
| --- | --- | --- | --- | --- | --- | --- | --- | --- | --- | --- | --- | --- |
| DENAALEAKLAALKAKLAALKAEIAALEG [P5-AA-12HAA-L] | -1.57 | 0.451 | -0.352 | 0.645 | 1.74 | -0.243 | -0.666 | 1.66 | 2.39 | -0.665 | – | interaction score [10]: 2.26 |
| DENAALEAKSAALKAKNAALKAEIAALEG [P5-AA-1HAA-S] | – | – | – | – | – | – | – | – | – | 0.913 | – | interaction score [12]: -1.74; interaction score [13]: -0.781; interaction score [14]: 0.0581; interaction score [15]: -1.01; interaction score [16]: 1.67; interaction score [17]: -0.821; interaction score [18]: -0.742; interaction score [19]: 0.235; interaction score [20]: 2.16; interaction score [21]: 0.832 |
| DENAALEAKVAALKAKNAALKAEIAALEG [P5-AA-1HAA-V] | – | – | – | – | – | – | – | – | – | 1.42 | – | interaction score [12]: 0.818; interaction score [13]: 2.25; interaction score [14]: 1.79; interaction score ([15]; mean of both orientations): 2.25; interaction score [16]: 2.32; interaction score [17]: 1.76; interaction score [18]: 1.53; interaction score [19]: 1.93; interaction score [20]: 2.09; interaction score [21]: 2.48 |
| DENAALEAKVAALKAKVAALKAEIAALEG [P5-AA-12HAA-V] | -1.5 | 1.61 | 1.34 | 1.73 | 2.29 | 1.94 | 1.18 | 1.87 | 2.1 | -0.708 | 1.09 | – |
| DENAALEAKEAALKAKEAALKAEIAALEG [P5-AA-12HAA-E] | -1.48 | -1.42 | -1.89 | -2.37 | -0.949 | -2.01 | -1.39 | -1.32 | 0.123 | -1.74 | -1.59 | – |
| DENAALEAKYAALKAKYAALKAEIAALEG [P5-AA-12HAA-Y] | -1.3 | -1.65 | -1.67 | -1.55 | 2.06 | -1.41 | -1.4 | – | 2.38 | -0.0879 | 1.48 | interaction score [8]: -0.448 |
| DENAALEAKAAALKAKAAALKAEIAALEG [P5-AA-12HAA-A] | -1.63 | -1.81 | -1.86 | – | 1.96 | -2.54 | -1.71 | -0.646 | 1.95 | -1.39 | -0.289 | interaction score [4]: -1.98 |
| DENAALEAKDAALKAKDAALKAEIAALEG [P5-AA-12HAA-D] | -1.47 | -1.97 | -1.57 | -1.61 | -1.56 | -1.55 | -1.67 | -1.41 | -1.32 | -1.68 | – | interaction score [10]: -1.95 |
| DENAALEAKHAALKAKHAALKAEIAALEG [P5-AA-12HAA-H] | -1.53 | -1.49 | -1.49 | -1.6 | 1.16 | -1.68 | – | -0.831 | 1.55 | 0.14 | -0.856 | interaction score [7]: -1.37 |
